Assay [1] addresses Human Id1: Histidine (human) (UniProt P41134). The assay can be described thus: ELISA, coated antigen, Ab 0.025 ug/ml.
The target is the same in assay [2]. As to the kind of experiment: ELISA, coated antigen, Ab 0.100 ug/ml.
Assay [3] shares this target. The assay can be described thus: ELISA, coated antigen, Ab 0.000 ug/ml (blank, diluent only).
Assay [4] shares this target. As to the kind of experiment: ELISA, coated antigen, Ab 0.005 ug/ml.
For assay [5] the target is unchanged. The assay can be described thus: ELISA, coated antigen, Ab 0.250 ug/ml.
For assay [6], the target named is T1, Mouse Id1: Histidine (mouse, UniProt P20067-2 1-148).
T1 construct: E. coli fusion protein (vector pGW07); also called m-Id1-His; not shown: His-tag
T1 sequence: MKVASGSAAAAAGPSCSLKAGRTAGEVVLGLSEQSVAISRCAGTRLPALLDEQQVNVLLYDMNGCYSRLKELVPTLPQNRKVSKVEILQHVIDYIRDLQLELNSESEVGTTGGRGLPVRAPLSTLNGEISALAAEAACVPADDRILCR
The assay can be described thus: ELISA, coated antigen, Ab 0.500 ug/ml.

Assay [7] has as its target T2, Mouse Id3: Histidine (mouse, UniProt P41133 1-119, limits assumed).
T2 construct: E. coli fusion protein (vector pGW07); also called m-Id3: His; not shown: His-tag
T2 sequence (looked up): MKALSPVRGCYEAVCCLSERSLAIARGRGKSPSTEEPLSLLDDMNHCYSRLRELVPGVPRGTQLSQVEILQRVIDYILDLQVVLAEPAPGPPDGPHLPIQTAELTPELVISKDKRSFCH
The assay can be described thus: ELISA, coated antigen, Ab 0.500 ug/ml.

Assay [8] has as its target Human Id1: Histidine (human) (UniProt P41134). As to the kind of experiment: ELISA, coated antigen, Ab 0.500 ug/ml.
The target of assay [9] is T3, Human Id4: Histidine (human, UniProt P47928 1-161, limits assumed).
T3 construct: E. coli fusion protein (vector pGW07); also called h-Id4: His; not shown: His-tag
T3 sequence (looked up): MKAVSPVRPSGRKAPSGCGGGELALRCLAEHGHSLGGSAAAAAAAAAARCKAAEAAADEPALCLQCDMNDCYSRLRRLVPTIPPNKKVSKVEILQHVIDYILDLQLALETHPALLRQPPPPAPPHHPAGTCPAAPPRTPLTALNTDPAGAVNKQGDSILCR
The assay can be described thus: ELISA, coated antigen, Ab 0.050 ug/ml.

Assay [10] concerns the target T1, Mouse Id1: Histidine. As to the kind of experiment: ELISA, coated antigen, Ab 0.050 ug/ml.
For assay [11], the target named is T4, Mouse Id2: Histidine (mouse, UniProt P41136 1-134, limits assumed).
T4 construct: E. coli fusion protein (vector pGW07); also called m-Id2: His; not shown: His-tag
T4 sequence (looked up): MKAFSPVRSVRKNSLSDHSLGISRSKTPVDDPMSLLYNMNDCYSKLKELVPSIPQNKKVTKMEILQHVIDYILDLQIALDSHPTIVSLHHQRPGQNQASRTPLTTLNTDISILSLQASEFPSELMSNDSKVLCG
The assay can be described thus: ELISA, coated antigen, Ab 0.050 ug/ml.

For assay [12], the target named is T5, Human Id2: Histidine (human, UniProt Q02363 1-134, limits assumed).
T5 construct: E. coli fusion protein (vector pGW07); also called h-Id2: His; not shown: His-tag
T5 sequence (looked up): T4 sequence (looked up) with T60S, V131A
As to the kind of experiment: ELISA, coated antigen, Ab 0.050 ug/ml.

Assay [13] deals with T6, Mouse Id4: Histidine (mouse, UniProt P41139 1-161, limits assumed).
T6 construct: E. coli fusion protein (vector pGW07); also called m-Id4: His; not shown: His-tag
T6 sequence (looked up): T3 sequence (looked up) with H125L, T130A, A133V
The assay can be described thus: ELISA, coated antigen, Ab 0.050 ug/ml.

Assay [14] has as its target T2, Mouse Id3: Histidine. As to the kind of experiment: ELISA, coated antigen, Ab 0.050 ug/ml.
The target in assay [15] is T7, Human Id3: Histidine (human, UniProt Q02535 1-119, limits assumed).
T7 construct: E. coli fusion protein (vector pGW07); also called h-Id3: His; not shown: His-tag
T7 sequence (looked up): T2 sequence (looked up) with S31G, S33A, T34A, K112N
The assay can be described thus: ELISA, coated antigen, Ab 0.050 ug/ml.

The target of assay [16] is Human Id1: Histidine (human) (UniProt P41134). As to the kind of experiment: ELISA, coated antigen, Ab 0.050 ug/ml.
Human Id1: Histidine (human), sequence (P41134 whole entry): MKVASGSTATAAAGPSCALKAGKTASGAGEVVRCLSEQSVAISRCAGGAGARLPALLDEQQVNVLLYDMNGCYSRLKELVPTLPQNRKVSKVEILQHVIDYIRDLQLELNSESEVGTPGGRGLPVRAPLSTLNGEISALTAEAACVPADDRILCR
The target is the same in assay [17]. As to the kind of experiment: ELISA, coated antigen, Ab 0.010 ug/ml.
Assay [18] addresses T3, Human Id4: Histidine. The assay can be described thus: ELISA, coated antigen; relative to mouse Id1.
Assay [19] concerns the target T4, Mouse Id2: Histidine. The assay can be described thus: ELISA, coated antigen; relative to mouse Id1.
The target of assay [20] is T5, Human Id2: Histidine. The assay can be described thus: ELISA, coated antigen; relative to mouse Id1.
Assay [21] deals with T6, Mouse Id4: Histidine. As to the kind of experiment: ELISA, coated antigen; relative to mouse Id1.
In assay [22] the target is T2, Mouse Id3: Histidine. As to the kind of experiment: ELISA, coated antigen; relative to mouse Id1.
For assay [23], the target named is T7, Human Id3: Histidine. The assay can be described thus: ELISA, coated antigen; relative to mouse Id1.

Positions count from the first letter of the chain named. A value given as a limit tells only on which side of the number the result lay.

In the case of “rabbit monoclonal anti-human Id1, clone #BCH-2/#5-3 (antibody)”, the A450 in assay [1] was 0.728 A450; in assay [2], 1.86 A450; in assay [3] it was 0.052 A450; in [4] it was 0.209 A450; in assay [5], 2.76 A450; in assay [6], 0.151 A450. The A450 in assay [7] worked out at 0.05 A450; in assay [8], 3.15 A450; in assay [9], 0.052 A450; in [10] it was 0.057 A450; in assay [11] it was 0.05 A450; in assay [12], 0.048 A450. Moreover, the A450 in [13] was 0.048 A450; in [14] it was 0.052 A450; in assay [15] it was 0.046 A450; in assay [16], 1.22 A450; in assay [17], 0.362 A450.

With “rabbit monoclonal anti-mouse/human Id1, clone #BCH-1/#195-14 (antibody)”, the A450 amounted to 1.12 A450 in [1]; 2.17 A450 in assay [2]; 0.05 A450 in assay [3]; 0.31 A450 in [4]; 2.88 A450 in assay [5]; 2.79 A450 in assay [6]. For the same molecule, the A450 was determined as 0.051 A450 in assay [7]; 3.02 A450 in [8]; 0.049 A450 in assay [9]; 1.39 A450 in assay [10]; 0.054 A450 in assay [11]; 0.048 A450 in assay [12]. In addition, the A450 in assay [13] is 0.049 A450; in assay [14], 0.05 A450; in assay [15], 0.047 A450; in assay [16] it was 1.7 A450; in [17], 0.569 A450. The Cross-reactivity (%) in [18], in assay [19], in assay [20], in [21], in [22] and in assay [23] was < 1% throughout.

B1: rabbit monoclonal anti-mouse Id1, clone #BCH-1/#37-2 (antibody, V domains shown)
VH: QSVEESGGRLVTPGTPLTLTCKVSGFDINSYAMDWFRQAPGKGLEWIGMMSTRGNTYYTSWAKGRFTISKTSSTTVDLKMTSLTTEDTATYFCARGGLWGPGTLVTVSS
VL: RVLTQTASPVSAAVGGTVTINCQASQSVYNGNRLGWYQLKPGQSPKELIHDASTLASGVPSRFRGSGSGTQFTLTINDVQCDDAATYYCVGSYACSTGDCNVFGGGTEVVVK
notes: Rabbit IgG from hybridoma, Protein G purified; also called m Id1 MoAb 37-2; Rabbit Monoclonal Anti-Mouse Id1 (#37-2)
Take B1: the A450 in assay [1] came out at 0.073 A450; in assay [2] it was 0.117 A450; in assay [3], 0.051 A450; in assay [4] it was 0.057 A450; in [5] it was 0.187 A450; in assay [8], 0.27 A450. In addition, the A450 came to 0.092 A450 in [16] and 0.056 A450 in [17]. In addition, the “Cross-reactivity (%)” value in [18], in assay [19], in [20], in assay [21], in assay [22] and in assay [23] was < 1% throughout.

The record behind these values is US20060286609A1 (BIOCHECK, published 2006).
